Measurements: patent US20220242948A1 (CARTEXELL, published 2022)

B1: E7 (scFv)
scFv (VH-linker-VL): EVQLVESGGGLVQPGGSLRLSCAASGFTFSSYAMHWVRQAPGKGLEWVSAISSSGSSKYYADSVKGRFTISRDNSKNTLYLQINSLRAEDTAVYYCAKDESYGWLYAFDLWGQGTLVTVSSGGGGSGGGGSGGGGSDIQMTQSPSSLSASVGDRVTITCRASQSISNYLNWYQQKPGKAPKLLIYAASRLQSGVPSRFSGSGSGTDFTLTISSLQPEDFATYYCQQSYSFPLTFGQGTKVEIK
notes: also called mL1CAM-3R-E7; ID 4 group
B2: G2 (scFv)
scFv (VH-linker-VL): EVQLVESGGGLVQPGGSLRLSCAASGFTFSSYAMHWVRQAPGKGLEWVSAISSSGSSKYYADSVKGRFTISRDNSKNTLYLQINSLRAEDTAVYYCAKDESYGWLYAFDLWGQGTLVTVSSGGGGSGGGGSGGGGSDIQMTQSPSSLSASVGDRVTITCRASQSISNYLNWYQQKPGKAPKLLIYAASRLQSGVPSRFSGSGSGTDFTLTISSLQPEDFATYYCQQSYSFPLTFGQGTKVEIK
notes: also called mL1CAM-3R-G2; ID 4 group
B3: whole IgG1 antibody converted from clone 3R-H8 (antibody, V domains shown)
VH: EVQLVESGGGLVQPGGSLRLSCAASGFTFSDYAMNWVRQAPGKGLEWVSAISSTGSTIYYADSVKGRFTISRDNSKNTLYLQMNSLRAEDTAVYYCAKQSTYFYSYFDVWGQGTLVTVSS
VL: not shown
notes: also called 3R-H8 whole IgG1; mL1CAM-3R-H8 IgG1

Assays:
[1] = target: T1, mouse L1CAM (mL1CAM) protein fused with the Fc domain (R&D system, Cat No.5674-NC) (mouse, UniProt P11627 20-1123, limits assumed); assay: monoclonal phage ELISA, plate coated with mL1CAM-Fc (3R clones), HRP-anti-M13, absorbance at 450 nm, cut-off 0.4
T1 construct: Bought protein; also called mL1CAM-Fc; antigen mL1CAM; not shown: Fc domain
Procedure: Specifically, the antigen mL1CAM protein was added to 96-well plates, incubated at 4° C. overnight, and then blocked with 2% MPBS at 37° C. for 2 hours. Since the antigen mL1CAM protein was fused with the Fc domain, Fc as an Fc control was also added to the 96-well plates, incubated at 4° C. overnight, and blocked with 2% MPBS at 37° C. for 2 hours. Then, the phages (up to 10¹¹ cfu) were added to the 96-well plates. After incubation at room temperature for 90 minutes, HRP-anti-M13 (Sino Biological, Cat No. 11973-MM05) was diluted in PBS to 1:5000, and added to 96-well plates. After incubation at room temperature for 1 hour, TMB substrate (Sigma, Cat No. T0440) and 2N H2504 (Merck, Cat No.100731) were sequentially added, and the absorbance (OD) at 450 nm was measured. As a result, when the absorbance (A450 nm) cut-off for the antigen mL1CAM was set to at least 0.4 for selection, one clone in the 2nd round, a total of 26 clones in the 3rd round, and a total of 9 clones in the 4th round specifically bound (positive) to the antigen mL1CAM in ELISA (FIG. 3).

[2] = target: T1, mouse L1CAM (mL1CAM) protein fused with …; assay: Octet, AR2G sensor, 3R-H8 loaded as ligand at 5 ug/ml (10 mM acetate pH 6.0), mL1CAM as analyte 0 ~ 100 nM in 1X PBS + 0.09% Tween
Procedure: (§1) The clone 3R-H8 showing the highest binding affinity among four types of anti-L1CAM scFv was subjected to a conversion procedure, thereby securing the whole IgG1 antibody. Through the Octet system (Forte Bio, Model No. QK384) using the purified whole IgG1 antibody, the antigen-antibody affinity was analyzed for the antigen hL1CAM (Sino biological, Cat No.10140-H08H) protein or mL1CAM (R&D, Cat No. 5674-NC) protein.

[3] = target: T2, human L1CAM protein (hL1CAM, Sino biological, Cat No.10140-H08H) (human, UniProt P32004 20-1120); assay: Octet, AR2G sensor, 3R-H8 loaded as ligand at 5 ug/ml (10 mM acetate pH 5.0), hL1CAM as analyte 0 ~ 200 nM in 1X PBS + 0.09% Tween; column head kdis(1/s)
T2 construct: Bought protein used in the Octet assay; also called antigen hL1CAM
Procedure: as §1

[4] = target: T2, human L1CAM protein (hL1CAM, Sino …); assay: Octet, AR2G sensor, 3R-H8 loaded as ligand at 5 ug/ml (10 mM acetate pH 5.0), hL1CAM as analyte 0 ~ 200 nM in 1X PBS + 0.09% Tween
Procedure: as §1

[5] = target: T1, mouse L1CAM (mL1CAM) protein fused with …; assay: BLI, Octet system (Forte Bio QK384)
Procedure: as §1

[6] = target: T2, human L1CAM protein (hL1CAM, Sino …); assay: BLI, Octet system (Forte Bio QK384)
Procedure: as §1

[7] = target: T1, mouse L1CAM (mL1CAM) protein fused with …; assay: Octet, AR2G sensor, 3R-H8 loaded as ligand at 5 ug/ml (10 mM acetate pH 6.0), mL1CAM as analyte 0 ~ 100 nM in 1X PBS + 0.09% Tween; column head kdis(1/s)
Procedure: as §1

T1 sequence (P11627 20-1123 limits assumed): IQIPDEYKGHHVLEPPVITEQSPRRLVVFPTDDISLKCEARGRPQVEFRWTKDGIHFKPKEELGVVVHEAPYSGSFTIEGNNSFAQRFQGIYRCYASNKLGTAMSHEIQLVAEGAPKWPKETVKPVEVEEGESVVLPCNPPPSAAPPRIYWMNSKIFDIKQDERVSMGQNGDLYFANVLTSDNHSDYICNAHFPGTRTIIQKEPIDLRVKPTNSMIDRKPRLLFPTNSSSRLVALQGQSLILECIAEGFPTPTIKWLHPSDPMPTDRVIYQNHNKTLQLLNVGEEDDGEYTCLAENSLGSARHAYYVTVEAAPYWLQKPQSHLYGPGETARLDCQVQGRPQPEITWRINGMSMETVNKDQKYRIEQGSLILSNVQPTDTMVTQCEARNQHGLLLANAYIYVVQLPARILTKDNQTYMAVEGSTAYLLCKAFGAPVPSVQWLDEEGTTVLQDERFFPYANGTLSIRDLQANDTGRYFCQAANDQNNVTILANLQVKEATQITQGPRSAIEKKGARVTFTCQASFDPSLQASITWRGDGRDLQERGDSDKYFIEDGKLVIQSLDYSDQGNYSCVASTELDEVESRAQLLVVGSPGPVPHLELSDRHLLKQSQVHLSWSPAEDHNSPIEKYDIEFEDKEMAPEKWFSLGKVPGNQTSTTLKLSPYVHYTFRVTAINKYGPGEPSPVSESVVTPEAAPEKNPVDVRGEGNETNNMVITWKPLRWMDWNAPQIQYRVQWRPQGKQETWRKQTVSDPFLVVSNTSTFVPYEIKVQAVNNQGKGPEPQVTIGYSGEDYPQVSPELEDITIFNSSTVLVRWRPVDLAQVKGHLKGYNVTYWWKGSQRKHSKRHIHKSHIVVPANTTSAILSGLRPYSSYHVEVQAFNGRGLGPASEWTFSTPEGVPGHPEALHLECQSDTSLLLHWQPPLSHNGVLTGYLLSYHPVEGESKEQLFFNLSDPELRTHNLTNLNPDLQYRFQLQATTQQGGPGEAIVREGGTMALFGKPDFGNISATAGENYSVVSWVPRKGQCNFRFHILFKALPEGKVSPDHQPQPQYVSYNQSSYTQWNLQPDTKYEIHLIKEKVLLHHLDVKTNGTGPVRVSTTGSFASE
T2 sequence (P32004 20-1120 limits assumed): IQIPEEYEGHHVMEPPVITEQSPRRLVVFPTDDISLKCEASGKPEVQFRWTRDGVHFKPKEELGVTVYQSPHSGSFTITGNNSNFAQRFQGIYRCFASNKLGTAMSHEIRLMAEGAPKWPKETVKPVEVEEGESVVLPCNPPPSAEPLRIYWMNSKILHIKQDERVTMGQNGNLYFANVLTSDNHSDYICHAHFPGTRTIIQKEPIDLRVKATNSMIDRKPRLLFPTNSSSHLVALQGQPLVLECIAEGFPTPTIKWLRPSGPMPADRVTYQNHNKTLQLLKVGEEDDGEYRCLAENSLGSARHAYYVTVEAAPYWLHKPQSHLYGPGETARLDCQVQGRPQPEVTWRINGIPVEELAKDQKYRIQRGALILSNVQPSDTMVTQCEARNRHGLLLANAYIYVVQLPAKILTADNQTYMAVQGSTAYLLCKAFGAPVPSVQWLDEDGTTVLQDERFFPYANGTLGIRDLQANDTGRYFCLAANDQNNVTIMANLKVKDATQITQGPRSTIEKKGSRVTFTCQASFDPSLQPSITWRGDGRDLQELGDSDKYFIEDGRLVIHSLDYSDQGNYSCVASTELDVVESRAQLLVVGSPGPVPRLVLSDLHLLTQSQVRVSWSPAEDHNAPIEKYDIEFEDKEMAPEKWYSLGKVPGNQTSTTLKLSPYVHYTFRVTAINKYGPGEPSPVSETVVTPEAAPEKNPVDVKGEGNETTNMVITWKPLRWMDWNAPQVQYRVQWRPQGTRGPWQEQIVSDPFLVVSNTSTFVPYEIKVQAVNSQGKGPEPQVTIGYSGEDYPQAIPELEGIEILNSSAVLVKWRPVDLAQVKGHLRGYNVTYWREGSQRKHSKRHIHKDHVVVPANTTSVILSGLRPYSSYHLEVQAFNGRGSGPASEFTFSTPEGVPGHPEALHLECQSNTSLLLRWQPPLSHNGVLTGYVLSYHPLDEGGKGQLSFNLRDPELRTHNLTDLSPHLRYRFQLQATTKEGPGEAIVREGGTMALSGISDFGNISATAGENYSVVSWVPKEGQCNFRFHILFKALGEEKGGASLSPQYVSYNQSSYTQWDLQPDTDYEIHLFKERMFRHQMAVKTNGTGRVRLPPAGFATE

Binder | binding result [1] | kon [2] [M⁻¹ s⁻¹] | koff [3] [s⁻¹] | kon [4] [M⁻¹ s⁻¹] | Kd [5] [nM] | Kd [6] [nM] | koff [7] [s⁻¹]
B1 | binds | – | – | – | – | – | –
B2 | binds | – | – | – | – | – | –
B3 | – | 462000 | 0.000239 | 57700 | 20.5 | 4.14 | 0.00945
